What was measured:
MTPAP (human) [1] = molecular target: MTPAP (human) (UniProt Q9NVV4); assay: BioID-MS +ONC201
NDUFV3 (human) = NDUFV3 (human) (UniProt P56181); assay: BioID-MS +ONC201
ECSIT (human) = ECSIT (human) (UniProt Q9BQ95); assay: BioID-MS +ONC201
IDH3A (human) [2] = molecular target: IDH3A (human) (UniProt P50213); assay: BioID-MS +ONC201
ACAT1 (human) = ACAT1 (human) (UniProt P24752); assay: BioID-MS +ONC201
NDUFAF1 (human) = NDUFAF1 (human) (UniProt Q9Y375); assay: BioID-MS +ONC201
CLYBL (human) [3] = molecular target: CLYBL (human) (UniProt Q8N0X4); assay: BioID-MS +ONC201
Chain of CLYBL (human) (Q8N0X4 23-340 limits assumed): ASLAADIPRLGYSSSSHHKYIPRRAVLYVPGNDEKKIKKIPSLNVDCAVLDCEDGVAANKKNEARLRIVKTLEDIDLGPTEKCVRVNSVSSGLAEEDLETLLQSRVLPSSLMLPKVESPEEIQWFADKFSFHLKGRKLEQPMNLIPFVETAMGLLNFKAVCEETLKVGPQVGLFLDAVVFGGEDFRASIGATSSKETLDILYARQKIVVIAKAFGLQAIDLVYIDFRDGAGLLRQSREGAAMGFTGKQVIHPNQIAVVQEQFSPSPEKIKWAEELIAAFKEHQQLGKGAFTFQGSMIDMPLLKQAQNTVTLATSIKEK

MRPL40 (human) = MRPL40 (human) (UniProt Q9NQ50); assay: BioID-MS +ONC201
NFS1 (human) = NFS1 (human) (UniProt Q9Y697); assay: BioID-MS +ONC201
Chain of NFS1 (human) (Q9Y697 56-457 limits assumed): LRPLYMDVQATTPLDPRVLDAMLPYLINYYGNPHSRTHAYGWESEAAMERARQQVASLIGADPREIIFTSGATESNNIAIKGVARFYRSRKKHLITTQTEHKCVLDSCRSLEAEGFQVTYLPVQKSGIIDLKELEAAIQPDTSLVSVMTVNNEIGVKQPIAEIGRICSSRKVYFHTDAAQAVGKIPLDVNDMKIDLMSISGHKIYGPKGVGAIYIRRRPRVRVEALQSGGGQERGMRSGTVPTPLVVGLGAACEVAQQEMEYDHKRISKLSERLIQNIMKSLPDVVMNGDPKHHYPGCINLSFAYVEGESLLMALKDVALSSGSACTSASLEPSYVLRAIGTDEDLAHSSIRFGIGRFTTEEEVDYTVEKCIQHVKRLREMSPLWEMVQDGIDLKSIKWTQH

NDUFS8 (human) = NDUFS8 (human) (UniProt O00217); assay: BioID-MS +ONC201
ALDH6A1 (human) = ALDH6A1 (human) (UniProt Q02252); assay: BioID-MS +ONC201
IBA57 (human) = IBA57 (human) (UniProt Q5T440); assay: BioID-MS +ONC201
LARS2 (human) [4] = molecular target: LARS2 (human) (UniProt Q15031); assay: BioID-MS +ONC201
Chain of LARS2 (human) (Q15031 whole entry): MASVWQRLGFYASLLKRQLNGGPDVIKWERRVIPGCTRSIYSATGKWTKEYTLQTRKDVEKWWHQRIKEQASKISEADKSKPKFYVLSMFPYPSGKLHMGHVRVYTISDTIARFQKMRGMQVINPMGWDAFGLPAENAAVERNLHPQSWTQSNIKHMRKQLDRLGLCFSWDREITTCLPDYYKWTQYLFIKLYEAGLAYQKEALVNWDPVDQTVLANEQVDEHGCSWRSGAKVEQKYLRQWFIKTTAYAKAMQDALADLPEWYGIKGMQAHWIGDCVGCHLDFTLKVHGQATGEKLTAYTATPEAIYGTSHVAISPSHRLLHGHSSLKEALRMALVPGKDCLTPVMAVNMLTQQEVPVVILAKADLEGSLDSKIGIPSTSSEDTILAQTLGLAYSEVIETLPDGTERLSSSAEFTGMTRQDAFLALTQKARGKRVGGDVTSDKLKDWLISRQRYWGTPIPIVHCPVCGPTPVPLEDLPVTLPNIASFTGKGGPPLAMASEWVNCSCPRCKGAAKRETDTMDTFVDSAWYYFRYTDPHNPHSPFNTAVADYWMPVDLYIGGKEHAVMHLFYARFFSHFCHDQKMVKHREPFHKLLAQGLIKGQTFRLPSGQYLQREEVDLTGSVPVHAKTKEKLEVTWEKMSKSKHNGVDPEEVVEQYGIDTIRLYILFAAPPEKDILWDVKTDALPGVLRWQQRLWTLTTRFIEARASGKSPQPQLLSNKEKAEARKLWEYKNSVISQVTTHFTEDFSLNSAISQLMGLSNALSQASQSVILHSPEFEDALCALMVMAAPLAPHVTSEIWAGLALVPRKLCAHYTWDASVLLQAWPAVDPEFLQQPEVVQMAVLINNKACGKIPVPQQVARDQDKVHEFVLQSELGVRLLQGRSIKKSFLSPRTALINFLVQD

FASTKD2 (human) = FASTKD2 (human) (UniProt Q9NYY8); assay: BioID-MS +ONC201
MTPAP (human) [5] = molecular target: MTPAP (human) (UniProt Q9NVV4); assay: BioID-MS
NDUFAF7 (human) = NDUFAF7 (human) (UniProt Q7L592); assay: BioID-MS
ALDH4A1 (human) = ALDH4A1 (human) (UniProt P30038); assay: BioID-MS
AK3 (human) = AK3 (human) (UniProt Q9UIJ7); assay: BioID-MS
NUBPL (human) = NUBPL (human) (UniProt Q8TB37); assay: BioID-MS
NDUFAF4 (human) = NDUFAF4 (human) (UniProt Q9P032); assay: BioID-MS
ACAD10 (human) = ACAD10 (human) (UniProt Q6JQN1); assay: BioID-MS
FOXRED1 (human) = FOXRED1 (human) (UniProt Q96CU9); assay: BioID-MS
ACADSB (human) = ACADSB (human) (UniProt P45954); assay: BioID-MS
MRPL44 (human) = MRPL44 (human) (UniProt Q9H9J2); assay: BioID-MS
PMPCA (human) = PMPCA (human) (UniProt Q10713); assay: BioID-MS
Chain of PMPCA (human) (Q10713 34-525 limits assumed): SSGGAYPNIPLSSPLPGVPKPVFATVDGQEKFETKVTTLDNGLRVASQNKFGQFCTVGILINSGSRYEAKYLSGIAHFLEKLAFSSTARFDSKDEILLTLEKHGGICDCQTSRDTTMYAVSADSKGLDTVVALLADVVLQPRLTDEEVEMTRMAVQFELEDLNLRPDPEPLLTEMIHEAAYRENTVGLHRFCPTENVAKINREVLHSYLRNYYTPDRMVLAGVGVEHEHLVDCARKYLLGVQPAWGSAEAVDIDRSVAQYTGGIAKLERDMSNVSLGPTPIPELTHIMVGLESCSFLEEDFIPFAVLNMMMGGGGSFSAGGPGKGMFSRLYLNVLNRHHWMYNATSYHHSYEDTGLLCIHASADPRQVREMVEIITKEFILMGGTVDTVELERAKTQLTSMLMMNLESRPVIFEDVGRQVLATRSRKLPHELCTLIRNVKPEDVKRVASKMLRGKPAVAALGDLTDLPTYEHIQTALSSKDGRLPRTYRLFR

GRSF1 (human) = GRSF1 (human) (UniProt Q12849); assay: BioID-MS
Chain of GRSF1 (human) (Q12849 118-480 limits assumed): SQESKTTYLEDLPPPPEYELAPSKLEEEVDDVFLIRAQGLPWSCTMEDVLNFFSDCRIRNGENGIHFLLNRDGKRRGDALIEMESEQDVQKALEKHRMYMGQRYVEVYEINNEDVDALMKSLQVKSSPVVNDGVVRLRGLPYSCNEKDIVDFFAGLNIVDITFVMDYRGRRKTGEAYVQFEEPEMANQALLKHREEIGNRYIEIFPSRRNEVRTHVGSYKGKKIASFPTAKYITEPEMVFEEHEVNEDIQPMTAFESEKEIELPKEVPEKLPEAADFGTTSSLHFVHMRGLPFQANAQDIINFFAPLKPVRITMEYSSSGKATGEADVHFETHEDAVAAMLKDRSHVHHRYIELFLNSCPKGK

MRM3 (human) = MRM3 (human) (UniProt Q9HC36); assay: BioID-MS
ACADVL (human) = ACADVL (human) (UniProt P49748); assay: BioID-MS
IDH3A (human) [6] = molecular target: IDH3A (human) (UniProt P50213); assay: BioID-MS
CLYBL (human) [7] = molecular target: CLYBL (human) (UniProt Q8N0X4); assay: BioID-MS
NME4 (human) = NME4 (human) (UniProt O00746); assay: BioID-MS
MRPL21 (human) = MRPL21 (human) (UniProt Q7Z2W9); assay: BioID-MS
ACO2 (human) = ACO2 (human) (UniProt Q99798); assay: BioID-MS
OXCT1 (human) = OXCT1 (human) (UniProt P55809); assay: BioID-MS
Chain of OXCT1 (human) (P55809 40-520 limits assumed): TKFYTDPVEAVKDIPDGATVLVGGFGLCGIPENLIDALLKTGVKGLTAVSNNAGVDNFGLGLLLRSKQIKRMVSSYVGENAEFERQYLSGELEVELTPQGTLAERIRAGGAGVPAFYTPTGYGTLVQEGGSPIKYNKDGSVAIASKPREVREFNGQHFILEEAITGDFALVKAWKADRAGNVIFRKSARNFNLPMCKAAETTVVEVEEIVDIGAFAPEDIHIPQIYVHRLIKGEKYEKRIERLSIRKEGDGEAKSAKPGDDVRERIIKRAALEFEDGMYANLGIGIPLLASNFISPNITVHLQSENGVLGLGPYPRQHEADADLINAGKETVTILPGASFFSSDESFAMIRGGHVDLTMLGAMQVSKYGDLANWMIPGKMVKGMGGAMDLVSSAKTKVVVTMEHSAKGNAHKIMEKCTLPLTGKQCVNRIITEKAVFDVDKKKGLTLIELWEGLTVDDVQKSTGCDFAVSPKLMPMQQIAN

PDK3 (human) = PDK3 (human) (UniProt Q15120); assay: BioID-MS
GTPBP10 (human) = GTPBP10 (human) (UniProt A4D1E9); assay: BioID-MS
FMC1 (human) = FMC1 (human) (UniProt Q96HJ9); assay: BioID-MS
CDK5RAP1 (human) = CDK5RAP1 (human) (UniProt Q96SZ6); assay: BioID-MS
MDH2 (human) = MDH2 (human) (UniProt P40926); assay: BioID-MS
C7orf55 (human) = C7orf55 (human) (UniProt Q96HJ9); assay: BioID-MS
MRPL12 (human) = MRPL12 (human) (UniProt P52815); assay: BioID-MS
MGME1 (human) = MGME1 (human) (UniProt Q9BQP7); assay: BioID-MS
RNMTL1 (human) = RNMTL1 (human) (UniProt Q9HC36); assay: BioID-MS
ARG2 (human) = ARG2 (human) (UniProt P78540); assay: BioID-MS
Chain of ARG2 (human) (P78540 23-354 limits assumed): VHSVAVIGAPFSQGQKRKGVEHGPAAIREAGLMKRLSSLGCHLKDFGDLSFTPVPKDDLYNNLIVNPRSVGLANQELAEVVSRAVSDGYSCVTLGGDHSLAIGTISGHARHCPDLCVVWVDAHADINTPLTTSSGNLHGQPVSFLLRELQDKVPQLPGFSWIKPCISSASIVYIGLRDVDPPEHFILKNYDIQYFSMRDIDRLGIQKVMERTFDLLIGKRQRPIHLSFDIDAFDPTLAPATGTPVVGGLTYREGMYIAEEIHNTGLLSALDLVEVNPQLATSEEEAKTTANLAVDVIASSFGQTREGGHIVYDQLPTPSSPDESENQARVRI

COX5A (human) = COX5A (human) (UniProt P20674); assay: BioID-MS
VARS2 (human) = VARS2 (human) (UniProt Q5ST30); assay: BioID-MS
LARS2 (human) [8] = molecular target: LARS2 (human) (UniProt Q15031); assay: BioID-MS
GLRX5 (human) = GLRX5 (human) (UniProt Q86SX6); assay: BioID-MS
Chain of GLRX5 (human) (Q86SX6 32-157 limits assumed): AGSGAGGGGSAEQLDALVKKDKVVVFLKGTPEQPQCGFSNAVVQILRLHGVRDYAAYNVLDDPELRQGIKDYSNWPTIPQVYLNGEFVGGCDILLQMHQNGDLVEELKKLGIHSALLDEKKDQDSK

ATPAF2 (human) = ATPAF2 (human) (UniProt Q8N5M1); assay: BioID-MS
Chain of ATPAF2 (human) (Q8N5M1 41-289 limits assumed): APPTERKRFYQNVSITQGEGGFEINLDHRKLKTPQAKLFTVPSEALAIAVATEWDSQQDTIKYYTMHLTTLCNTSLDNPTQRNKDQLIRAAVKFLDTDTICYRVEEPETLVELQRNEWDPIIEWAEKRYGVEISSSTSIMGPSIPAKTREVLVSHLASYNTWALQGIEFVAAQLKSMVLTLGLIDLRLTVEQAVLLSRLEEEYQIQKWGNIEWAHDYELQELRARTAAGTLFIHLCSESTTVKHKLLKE

ATPAF1 (human) = ATPAF1 (human) (UniProt Q5TC12); assay: BioID-MS
PITRM1 (human) = PITRM1 (human) (UniProt Q5JRX3); assay: BioID-MS
IDE (human) = IDE (human) (UniProt P14735); assay: BioID-MS
NIPSNAP1 (human) = NIPSNAP1 (human) (UniProt Q9BPW8); assay: BioID-MS
COQ8A (human) = COQ8A (human) (UniProt Q8NI60); assay: BioID-MS
MTRF1L (human) = MTRF1L (human) (UniProt Q9UGC7); assay: BioID-MS
PTPMT1 (human) = PTPMT1 (human) (UniProt Q8WUK0); assay: BioID-MS

Chain of MTPAP (human) (Q9NVV4 38-582 limits assumed): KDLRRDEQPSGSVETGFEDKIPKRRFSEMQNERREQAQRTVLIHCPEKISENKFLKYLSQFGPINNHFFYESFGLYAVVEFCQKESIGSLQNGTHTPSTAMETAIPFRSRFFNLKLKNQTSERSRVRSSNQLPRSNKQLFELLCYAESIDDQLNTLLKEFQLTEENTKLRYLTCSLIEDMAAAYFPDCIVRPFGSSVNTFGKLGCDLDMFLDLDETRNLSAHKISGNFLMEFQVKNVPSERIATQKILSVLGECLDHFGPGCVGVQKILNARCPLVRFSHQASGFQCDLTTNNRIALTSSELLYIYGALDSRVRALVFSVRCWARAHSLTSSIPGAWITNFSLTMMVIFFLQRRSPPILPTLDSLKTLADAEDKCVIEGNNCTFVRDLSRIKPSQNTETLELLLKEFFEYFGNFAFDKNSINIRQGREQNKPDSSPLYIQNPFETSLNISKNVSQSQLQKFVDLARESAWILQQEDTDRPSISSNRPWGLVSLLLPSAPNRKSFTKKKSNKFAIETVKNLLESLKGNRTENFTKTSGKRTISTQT
Chain of IDH3A (human) (P50213 28-366 limits assumed): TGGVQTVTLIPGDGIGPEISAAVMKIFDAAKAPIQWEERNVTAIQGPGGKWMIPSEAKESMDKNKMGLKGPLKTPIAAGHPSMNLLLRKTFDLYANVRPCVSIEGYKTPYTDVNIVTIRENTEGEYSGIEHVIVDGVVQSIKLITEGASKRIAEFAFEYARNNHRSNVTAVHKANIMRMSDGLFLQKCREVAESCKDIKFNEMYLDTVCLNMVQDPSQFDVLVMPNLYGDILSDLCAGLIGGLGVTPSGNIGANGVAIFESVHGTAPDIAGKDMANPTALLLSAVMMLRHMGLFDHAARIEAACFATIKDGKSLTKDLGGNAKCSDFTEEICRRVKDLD
Chain of ECSIT (human) (Q9BQ95 49-431 limits assumed): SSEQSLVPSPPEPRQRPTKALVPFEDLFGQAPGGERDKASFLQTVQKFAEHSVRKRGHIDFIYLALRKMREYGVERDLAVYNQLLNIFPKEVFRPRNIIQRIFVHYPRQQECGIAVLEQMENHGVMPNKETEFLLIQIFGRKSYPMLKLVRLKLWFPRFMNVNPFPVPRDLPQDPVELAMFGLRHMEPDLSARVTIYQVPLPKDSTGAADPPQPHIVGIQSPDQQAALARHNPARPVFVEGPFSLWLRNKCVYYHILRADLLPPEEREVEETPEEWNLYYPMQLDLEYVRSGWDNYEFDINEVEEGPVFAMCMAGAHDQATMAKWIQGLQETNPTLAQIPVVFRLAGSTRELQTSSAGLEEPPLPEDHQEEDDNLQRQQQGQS

Question: What does the source list for “FlagBirA-ClpP (WT) (from UniProt P06709 1-321; Q16740 57-277) (enzyme)”?
Answer: Log2 Fold change (vs control) (MTPAP (human) [1]): -0.1 log2; Log2 Fold change (vs control) (NDUFV3 (human)): -8.18 log2; Log2 Fold change (vs control) (ECSIT (human)): -5.36 log2; Log2 Fold change (vs control) (IDH3A (human) [2]): -2 log2; Log2 Fold change (vs control) (ACAT1 (human)): -0.59 log2; Log2 Fold change (vs control) (NDUFAF1 (human)): -4.32 log2; Log2 Fold change (vs control) (CLYBL (human) [3]): -1.63 log2; Log2 Fold change (vs control) (MRPL40 (human)): -5.09 log2; Log2 Fold change (vs control) (NFS1 (human)): 0.55 log2; Log2 Fold change (vs control) (NDUFS8 (human)): -2.73 log2; Log2 Fold change (vs control) (ALDH6A1 (human)): -3.81 log2; Log2 Fold change (vs control) (IBA57 (human)): -1.05 log2; Log2 Fold change (vs control) (LARS2 (human) [4]): -0.14 log2; Log2 Fold change (vs control) (FASTKD2 (human)): -0.62 log2

Question: Which results are given for “FlagBirA-ClpP (Y118A) (from UniProt P06709 1-321; Q16740 57-277) (enzyme)”?
Answer: Log2 Fold change (vs control) (MTPAP (human) [5]): -0.78 log2; Log2 Fold change (vs control) (NDUFAF7 (human)): 0.04 log2; Log2 Fold change (vs control) (ALDH4A1 (human)): -0.81 log2; Log2 Fold change (vs control) (AK3 (human)): -0.28 log2; Log2 Fold change (vs control) (NUBPL (human)): -2.58 log2; Log2 Fold change (vs control) (NDUFAF4 (human)): 1.06 log2; Log2 Fold change (vs control) (ACAD10 (human)): -4.09 log2; Log2 Fold change (vs control) (FOXRED1 (human)): -4.09 log2; Log2 Fold change (vs control) (ACADSB (human)): -0.2 log2; Log2 Fold change (vs control) (MRPL44 (human)): 1.13 log2; Log2 Fold change (vs control) (PMPCA (human)): 0.15 log2; Log2 Fold change (vs control) (GRSF1 (human)): 1.91 log2; Log2 Fold change (vs control) (MRM3 (human)): 0.14 log2; Log2 Fold change (vs control) (ACADVL (human)): 0.28 log2; Log2 Fold change (vs control) (IDH3A (human) [6]): -0.06 log2; Log2 Fold change (vs control) (CLYBL (human) [7]): -3.17 log2; Log2 Fold change (vs control) (NME4 (human)): -0.42 log2; Log2 Fold change (vs control) (MRPL21 (human)): -0.72 log2; Log2 Fold change (vs control) (ACO2 (human)): -0.29 log2; Log2 Fold change (vs control) (OXCT1 (human)): -0.95 log2; Log2 Fold change (vs control) (PDK3 (human)): 0.6 log2; Log2 Fold change (vs control) (GTPBP10 (human)): -0.91 log2; Log2 Fold change (vs control) (FMC1 (human)): 0.41 log2; Log2 Fold change (vs control) (CDK5RAP1 (human)): -0.26 log2; Log2 Fold change (vs control) (MDH2 (human)): -0.03 log2; Log2 Fold change (vs control) (C7orf55 (human)): -0.74 log2; Log2 Fold change (vs control) (MRPL12 (human)): 0.21 log2; Log2 Fold change (vs control) (MGME1 (human)): 0.44 log2; Log2 Fold change (vs control) (RNMTL1 (human)): -0.2 log2; Log2 Fold change (vs control) (ARG2 (human)): 0.78 log2; Log2 Fold change (vs control) (COX5A (human)): 0.45 log2; Log2 Fold change (vs control) (VARS2 (human)): 0.76 log2; Log2 Fold change (vs control) (LARS2 (human) [8]): 0.1 log2; Log2 Fold change (vs control) (GLRX5 (human)): -0.26 log2; Log2 Fold change (vs control) (ATPAF2 (human)): -0.91 log2; Log2 Fold change (vs control) (ATPAF1 (human)): 0.59 log2; Log2 Fold change (vs control) (PITRM1 (human)): -0.16 log2; Log2 Fold change (vs control) (IDE (human)): -0.15 log2; Log2 Fold change (vs control) (NIPSNAP1 (human)): 0.11 log2; Log2 Fold change (vs control) (COQ8A (human)): -0.67 log2; Log2 Fold change (vs control) (MTRF1L (human)): 0.51 log2; Log2 Fold change (vs control) (PTPMT1 (human)): -0.04 log2

— US20220143024A1, “METHODS OF USING IMIPRIDONES” (Board of Regents, The University of Texas System, priority 2019, published 2022)
